From the supplement of paper PMC7877785
± gives the uncertainty stated by the source.

Experiment: self-splicing fitness, log relative to wild type (ln ratio); higher = more splicing; Tetrahymena group I intron in knt gene, E. coli kanamycin selection, DiMSum; sequences stand for … in CUCUCU…GGAGGGAAAAGUUAUCAGGCAUGCACCUGGUAGCUAGUCUUUAAACCAAUAGAUUGCAUCGGUUUAAAAGGCAAGACCGUCAAAUUGCGGGAAAGGGGUCAACAGCCGUUCAGUACCAAGUCUCAGGGGAAACUUUGAGAUGGCCUUGCAAAGGGUAUGGUAAUAAGCUGACGGACAUGGUCCUAACCACGCAGCCAAGUCCUAAGUCAACAGAUCUUCUGUUGAUAUGGAUGCAGUUCACAGACUAAAUGUCGGUCGGGGAAGAUGUAUUCUUCUCAUAAGAUAUAGUCGGACCUCUCCUUAAUGGGAGCUAGCGGAUGAAGUGAUGCAACACUGGAGCCGCUGGGAACUAAUUUGUAUGCGAAAGUAUAUUGAUUAGUUUUGGAGUACUCGUGGUCG
How it was run: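 A randomised library covering all eight P1ex-region intron nucleotides was built with the intron in the knt kanamycin-resistance gene on pET-22b(+) and held in E. coli BL21(DE3). Cells were grown overnight at 37°C or 30°C on LB agar, with or without 25 μg/mL kanamycin, plus 100 μg/mL carbenicillin, 50 μM IPTG and 0.2% rhamnose, and pooled colonies were amplicon-sequenced on an Illumina HiSeq 2500. DiMSum fitness is the error-weighted combination of wild-type-normalised replicate fold changes, kanamycin versus none.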

Sequence	self-splicing fitness (ln) (30 °C)	self-splicing fitness (ln) (37 °C)
GAGGAGCAAUAUUACGUGCG	-2.06 ± 0.15	-1.39 ± 0.17
GAGCAGCAAUAUUACGUAAG	-2.59 ± 0.17	-1.45 ± 0.18
AUCCAGCAAUAUUACGUGGC	-3.98 ± 0.17	-2.62 ± 0.16
UCUAAGCAAUAUUACGCGCC	–	-2.67 ± 0.38
UUAUAGCAAUAUUACGUUUG	-2.12 ± 0.15	-1.14 ± 0.18
CAUUAGCAAUAUUACGUCUU	-3.25 ± 0.27	-2.33 ± 0.21
ACUAAGCAAUAUUACGAAAC	-3.55 ± 0.12	-2.3 ± 0.16
CCUCAGCAAUAUUACGUUCA	-2.61 ± 0.16	-2.68 ± 0.3
GCUUAGCAAUAUUACGUAUU	-0.48 ± 0.12	0.669 ± 0.15
ACAGAGCAAUAUUACGCUAG	-3.28 ± 0.19	-2.61 ± 0.18
AACUAGCAAUAUUACGUUCC	-2.63 ± 0.22	-1.93 ± 0.24
GCUAAGCAAUAUUACGUGUC	-2.75 ± 0.13	-2.22 ± 0.14
GAUUAGCAAUAUUACGCUUC	-3.55 ± 0.34	-1.88 ± 0.29
CCUCAGCAAUAUUACGGUGA	-3.68 ± 0.28	-2.28 ± 0.2
GGGUAGCAAUAUUACGGUAG	–	-1.91 ± 0.23
AAAGAGCAAUAUUACGGUGC	-3.49 ± 0.17	-1.54 ± 0.15
UGAGAGCAAUAUUACGACGU	-2.66 ± 0.19	-1.78 ± 0.24
UUAUAGCAAUAUUACGCAUG	-1.67 ± 0.25	-0.364 ± 0.23
UUGUAGCAAUAUUACGCAAC	-2.57 ± 0.41	–
UACUAGCAAUAUUACGUUCA	-0.586 ± 0.08	-0.193 ± 0.09
CAACAGCAAUAUUACGGAGU	-3.71 ± 0.17	-1.22 ± 0.12
AACCAGCAAUAUUACGAUCG	-0.866 ± 0.084	-0.752 ± 0.099
UCGGAGCAAUAUUACGAUGA	-0.946 ± 0.15	-1.11 ± 0.16
ACAGAGCAAUAUUACGAACA	-2.01 ± 0.26	-2.67 ± 0.41
AUUUAGCAAUAUUACGAGUG	-2.59 ± 0.18	-0.743 ± 0.18
GUGAAGCAAUAUUACGAUAU	-0.274 ± 0.044	-0.103 ± 0.058

Sequence	self-splicing fitness (ln) (30 °C)	self-splicing fitness (ln) (37 °C)
CCCAAGCAAUAUUACGUGGC	-3.5 ± 0.13	-2.8 ± 0.18
UUAUAGCAAUAUUACGCGGU	-3.14 ± 0.28	-1.64 ± 0.28
UCGCAGCAAUAUUACGCCAG	-2.63 ± 0.084	-1.72 ± 0.1
ACCUAGCAAUAUUACGAUAC	-3.47 ± 0.25	-1.65 ± 0.2
AAUAAGCAAUAUUACGGGCU	-1.54 ± 0.14	-1.6 ± 0.14
CAACAGCAAUAUUACGUAGU	-3.22 ± 0.12	-1.91 ± 0.11
GACUAGCAAUAUUACGUCUU	-0.971 ± 0.099	-1.39 ± 0.15
AGACAGCAAUAUUACGUGGG	-3.37 ± 0.13	-2.37 ± 0.13
UCGCAGCAAUAUUACGAUCA	-1.27 ± 0.15	-1.18 ± 0.15
ACGUAGCAAUAUUACGAUAC	-2.62 ± 0.12	-2.26 ± 0.19
GCAAAGCAAUAUUACGUGGC	-3.38 ± 0.31	-2.57 ± 0.24
AGACAGCAAUAUUACGUGCU	-3.14 ± 0.12	-1.56 ± 0.085
AACCAGCAAUAUUACGCGAU	-3.69 ± 0.19	-1.77 ± 0.15
AUUAAGCAAUAUUACGGCUA	-0.106 ± 0.11	-0.122 ± 0.11
AUAUAGCAAUAUUACGAUUU	-0.24 ± 0.095	0.694 ± 0.12
ACCUAGCAAUAUUACGUACA	-1.31 ± 0.14	-0.964 ± 0.17
UUAAAGCAAUAUUACGAGAU	-3.41 ± 0.21	-2.19 ± 0.21
GCGGAGCAAUAUUACGCGCG	-2.77 ± 0.34	-2.83 ± 0.27
UUGGAGCAAUAUUACGAUUG	–	-2.34 ± 0.41
CCGCAGCAAUAUUACGGGAC	-4.12 ± 0.46	-2.65 ± 0.29
CAGAAGCAAUAUUACGAACG	-0.0252 ± 0.12	0.182 ± 0.16
UGAAAGCAAUAUUACGGCCG	-0.266 ± 0.091	0.807 ± 0.15
GACAAGCAAUAUUACGUACU	-1.16 ± 0.059	-0.397 ± 0.079
CCCUAGCAAUAUUACGCUUC	-2.66 ± 0.1	-2.36 ± 0.16
GUAAAGCAAUAUUACGCUCG	-0.0287 ± 0.1	0.709 ± 0.13
AGGAAGCAAUAUUACGGUGG	-3.94 ± 0.22	-1.64 ± 0.28

Sequence	self-splicing fitness (ln) (30 °C)	self-splicing fitness (ln) (37 °C)
CAUAAGCAAUAUUACGUCCU	-3.78 ± 0.27	-3.15 ± 0.19
UAUUAGCAAUAUUACGCCGU	–	-1.63 ± 0.33
UUGAAGCAAUAUUACGGCCC	-3.04 ± 0.4	-0.425 ± 0.2
AGUUAGCAAUAUUACGGUGU	-3.11 ± 0.21	-1.73 ± 0.21
CGAGAGCAAUAUUACGGAGC	-2.84 ± 0.35	–
CUCCAGCAAUAUUACGUUGG	-3.68 ± 0.19	-2.49 ± 0.21
CAUUAGCAAUAUUACGUAUU	-4.04 ± 0.4	-2.37 ± 0.27
AGAUAGCAAUAUUACGCCGG	-2.14 ± 0.44	–
GUGCAGCAAUAUUACGCGAG	-2.55 ± 0.13	-1.7 ± 0.12
UGCCAGCAAUAUUACGAGGC	-4.02 ± 0.42	-1.44 ± 0.18
CUAGAGCAAUAUUACGGUUA	-3.66 ± 0.24	-3.14 ± 0.4
CUGCAGCAAUAUUACGUAGU	-4.54 ± 0.45	-2.5 ± 0.28
UGGAAGCAAUAUUACGGGUU	-2.85 ± 0.18	-2.38 ± 0.41
UUUUAGCAAUAUUACGUCGA	-0.866 ± 0.12	0.0877 ± 0.14
CACAAGCAAUAUUACGUCAC	-3.24 ± 0.19	-2.62 ± 0.22
ACGUAGCAAUAUUACGAGAA	-2.37 ± 0.26	-3.02 ± 0.33
CCUAAGCAAUAUUACGUGAA	–	-1.96 ± 0.26
CAUGAGCAAUAUUACGUCAU	-3.61 ± 0.24	-1.24 ± 0.22
AACUAGCAAUAUUACGAAUG	-2.36 ± 0.11	-1.69 ± 0.12
CGACAGCAAUAUUACGAUUG	-0.746 ± 0.07	-0.877 ± 0.091
GUGGAGCAAUAUUACGUUCU	-4.21 ± 0.26	-2.38 ± 0.18
CCGAAGCAAUAUUACGUUCC	-3.94 ± 0.37	-2.81 ± 0.37
CAAUAGCAAUAUUACGCGAG	-1.76 ± 0.086	-0.754 ± 0.096
CUGUAGCAAUAUUACGAAAU	-3.22 ± 0.23	-2.54 ± 0.26
ACCCAGCAAUAUUACGCAAA	-1.21 ± 0.065	-0.816 ± 0.068
UGCGAGCAAUAUUACGGCGC	-2.34 ± 0.46	–
